Measurements taken from paper PMC9561381 (Nucleic Acids Research, 2022).

Molecular target: the molecule itself
Assay: SEC-MALS

B1: DCP2_(C-tail), untagged (domain or fragment, human, UniProt Q8IU60 249-353, looked up)
chain: SDNGFSSTGSTPAKPTVEKLSRTKFRHSQQLFPDGSPGDQWVKHRQPLQQKPYNNHSEMSDLLKGKNQSMRGNGRKQYQDSPNQKKRTNGLQPAKQQNSLMKCEK
  binding result: binds
